Bridge positions count the residues as written; N and C are the ends. Ends that are not written are not given here. I, II: the chains in the order shown.
B1: R1 CTF32 R2 CTF32 heterodimer (peptide)
peptide 1: VVAAAFVHFYGVSNLQEFRYGLEGGCTDDTLL
peptide 2: VVAGAFVHFHGVSNLQEFRFMIGGGCSEEDAL
modifications: disulfide I:26-II:26
B2: R1 CTF25 R2 CTF25 heterodimer (peptide)
peptide 1: HFYGVSNLQEFRYGLEGGCTDDTLL
peptide 2: HFHGVSNLQEFRFMIGGGCSEEDAL
modifications: disulfide I:19-II:19

Target: insulin degradation enzyme (IDE) (UniProt P14735 42-1019, limits assumed)
Test: cell-based or functional assay

Row | Binder | IDE Inhibition (90% inhibition at) [µg/mL]
1 | VVAGAFVHFHGVSNLQEFRFMIGGGCSEEDAL [R2 CTF32] | 40
2 | HFHGVSNLQEFRFMIGGGCSEEDAL [R2 CTF25] | 9
3 | VVAAAFVHFYGVSNLQEFRYGLEGGCTDDTLL (also: homodimer: inter-chain disulfide between Cys26 of both mer units) [R1 CTF32 R1 CTF32 homodimer] | 22.5
4 | VVAGAFVHFHGVSNLQEFRFMIGGGCSEEDAL (also: homodimer: inter-chain disulfide between Cys26 of both mer units) [R2 CTF32 R2 CTF32 homodimer] | 19
5 | B1 | 1.2
6 | B2 | 0.6
7 | VVAAAFVHFYGVSNLQEFRYGLEGGCTDDTLL [R1 CTF32] | 50
8 | HFYGVSNLQEFRYGLEGGCTDDTLL [R1 CTF25] | 12.4
